Test results published in paper PMC2174231 (The Journal of Cell Biology, 1999).

T1: PML wild-type fused to GAL4-DBD (UniProt P29590 1-882)
T1 sequence: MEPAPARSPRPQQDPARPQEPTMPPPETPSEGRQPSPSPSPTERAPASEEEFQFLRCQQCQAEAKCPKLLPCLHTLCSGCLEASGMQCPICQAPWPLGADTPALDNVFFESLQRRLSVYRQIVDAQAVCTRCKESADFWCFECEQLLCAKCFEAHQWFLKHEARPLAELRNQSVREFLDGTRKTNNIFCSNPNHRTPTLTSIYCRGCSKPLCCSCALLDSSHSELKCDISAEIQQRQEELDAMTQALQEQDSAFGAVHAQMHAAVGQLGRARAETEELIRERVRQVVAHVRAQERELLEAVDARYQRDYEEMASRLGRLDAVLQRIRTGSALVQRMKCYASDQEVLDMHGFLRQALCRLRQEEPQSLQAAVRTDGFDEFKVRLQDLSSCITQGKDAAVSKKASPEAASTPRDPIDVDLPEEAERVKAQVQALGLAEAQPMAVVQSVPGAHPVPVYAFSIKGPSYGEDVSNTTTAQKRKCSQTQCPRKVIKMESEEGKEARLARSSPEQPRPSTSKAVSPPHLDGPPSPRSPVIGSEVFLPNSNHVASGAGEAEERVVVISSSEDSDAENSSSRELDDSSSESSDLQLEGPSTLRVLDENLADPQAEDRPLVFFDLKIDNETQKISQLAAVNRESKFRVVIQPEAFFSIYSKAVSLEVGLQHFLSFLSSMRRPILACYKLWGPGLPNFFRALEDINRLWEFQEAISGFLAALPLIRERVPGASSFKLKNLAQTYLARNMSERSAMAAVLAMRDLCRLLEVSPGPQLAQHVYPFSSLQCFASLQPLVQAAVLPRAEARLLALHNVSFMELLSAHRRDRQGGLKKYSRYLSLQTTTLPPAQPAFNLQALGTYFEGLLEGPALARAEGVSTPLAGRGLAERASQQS


Molecular target: T1, PML wild-type fused to GAL4-DBD
Experiment: two-hybrid

Row | Binder | fold weaker interaction (β-galactosidase) against Daxx 488-740 [fold weaker] | fold strength of interaction (β-galactosidase) against full-length Daxx [fold]
1 | Daxx amino acids 433-740 fused to NLS-VP16 (domain or fragment) AETDDEDDEESDEEEEEEEEEEEEEATDSEEEEDLEQMQEGQEDDEEEDEEEEAAAGKDGDKSPMSSLQISNEKNLEPGKQISRSSGEQQNKGRIVSPSLLSEEPLAPSSIDAESNGEQPEELTLEEESPVSQLFELEIEALPLDTPSSVETDISSSRKQSEEPFTTVLENGAGMVSSTSFNGGVSPHNWGDSGPPCKKSRKEKKQTGSGPLGNSYVERQRSVHEKNGKKICTLPSPPSPLASLAPVADSSTRVDSPSHGLVTSSLCIPSPARLSQTPHSQPPRPGTCKTSVATQCDPEEIIVLSDSD | ~20 | 
2 | Daxx amino acids 625-740 fused to NLS-VP16 (domain or fragment) SGPPCKKSRKEKKQTGSGPLGNSYVERQRSVHEKNGKKICTLPSPPSPLASLAPVADSSTRVDSPSHGLVTSSLCIPSPARLSQTPHSQPPRPGTCKTSVATQCDPEEIIVLSDSD |  | ~3
3 | Daxx amino acids 488-740 fused to NLS-VP16 (domain or fragment) AGKDGDKSPMSSLQISNEKNLEPGKQISRSSGEQQNKGRIVSPSLLSEEPLAPSSIDAESNGEQPEELTLEEESPVSQLFELEIEALPLDTPSSVETDISSSRKQSEEPFTTVLENGAGMVSSTSFNGGVSPHNWGDSGPPCKKSRKEKKQTGSGPLGNSYVERQRSVHEKNGKKICTLPSPPSPLASLAPVADSSTRVDSPSHGLVTSSLCIPSPARLSQTPHSQPPRPGTCKTSVATQCDPEEIIVLSDSD |  | ~3
